B1: Ab4 (antibody, human IgG1, kappa, N297A, V domains shown)
VH: QSVEESGGRLVTPGTPLTLTCTVSGIDLSSYAMIWVRQAPEKGLEYIGYIGGIDSTYYASWAKGRFTISKTSTTVDLKMTSPTTEDTATYFCGRWSGTSGYNTIWGPGTLVTVSS
VL: DVVMTQTPASVEAAVGGTVTIKCQASQSIYSNLAWYQQKPGQPPKLLIYGASNLASGVSSRFKGSRSGTEYTLTISDLECADAATYYCQCTGGGDSGNTFGGGTEVVVKR
notes: also called antibody Ab4
B2: Ab3 (antibody, human IgG1, kappa, N297A, V domains shown)
VH: QSVEESGGRLVTPGGSLTLTCTASGFSLSSYYMSWVRQAPGKGLEWIGIIYPSGSTYYASWAKGRFTISKTSTTVDLKITSPTVEDTATYFCARGGAYATLNLWGPGTLVTVSS
VL: AVLTQTPSPVSAAVGGTVTISCQSSQSVYHNNLLSWYQQKPGQPPKLLIYDASKLTSGVSSRFSGSGSGTQFTLTISGVQCDDAATYYCLGGYDDDADNGFGGGTEVVVKR
notes: also called antibody Ab3
B3: Ab5 (antibody, human IgG1, kappa, N297A, V domains shown)
VH: QSVEESGGRLVTPGTPLTLTCTVSGFSLSSYAMSWVRQAPGKGLEWIGIISNSGTTYYASWAKGRFTISKTSTTVDLKITSPTTEDTATYFCARGIYWYWRVFNLWGPGTLVTVSS
VL: AVLTQTPSPVSAAVGGTVTINCQASQSVYNNLLSWYQQKPGQPPKLLIYDASNLASGVPDRFSGSGSGTQFTLTISGVQCDDAATYYCLGGYDDDADNAFGGGTEVVVKR
notes: also called antibody Ab5
B4: Ab1 (antibody, human IgG1, kappa, N297A, V domains shown)
VH: QSVEESGGRLVTPGTPLTLTCTVSGFSLSSYWMTWVRQAPGKGLEYIGIISSSGSTYYATWAKGRFTISKTSSTTVDLEITSPTTEDTATYFCARDSAFSSGLEFNIWGPGTLVTVSS
VL: AYDLTQTPASVEVAVGGTVTIKCQASQSVYSNWLSWYQQKPGQPPKLLIYDASDLASGVPSRFKGSGSGTQFTLTISGVQCDDAATYYCQQGQSSSDIDNTFGGGTEVVVKR
notes: also called antibody Ab1
B5: Ab8 (antibody, human IgG1, kappa, N297A, V domains shown)
VH: QEQLVESGGGLVQPEGSLTLTCTASGFSFTSDYYMCWVRQAPGKGLEWIGCISTGDGSTYYASWAKGRFTISKPSSTTVTLQMTRLTAADTATYFCARDRYYSYAYGAYVYASDLWGPGTLVTVSS
VL: DIVMTQTPASVSEPVGGTVTINCQASESIRNYLSWYQQKPGQRPKLLIYGASTLASGVPSRFKGSGSGTDFTLTISDLECADAATYYCQSNYGISSRSYVNGFGGGTEVVVKR
notes: also called antibody Ab8
B6: Ab6 (antibody, human IgG1, kappa, N297A, V domains shown)
VH: QEQLEESGGDLVKPEGSLTLTCTASGFSFSSNYWICWVRQAPGKGLEWIGCIRDGGGTYYASWAKGRLTISMTSSTTVTLQLNSLTAADTATYFCASDINDGWLGQFNLWGPGTLVTVSS
VL: DIVMTQTPASVEVAVGGTVTIKCQASQSISAYLAWYQQKPGQPPKLLIYRAYTLASGVPSRFKGSGSGTQFTLTISDLECADAATYYCQSYYSVTTNTYGNTFGGGTEVVVKR
notes: also called antibody Ab6
B7: Ab17 (antibody, human IgG1, kappa, N297A, V domains shown)
VH: QEQLEESGGDLVKPEGSLTLTCTASGFSFSSSYWICWVRQAPGKGLEWIGCIRPGSADYYASWAKGRFTISRASSSTVTLQMTSLTAADTATYFCASDINDGWLGQFNLWGPGTLVTVSS
VL: B6 VL with I2V, V13A, Q27L, S30A, A31D, Q37L, Y52S, Q70E, F71Y
notes: also called antibody Ab17
B8: Ab14 (antibody, human IgG1, kappa, N297A, V domains shown)
VH: QEQLEESGGDLVKPEGSLTLTCTGSGFSFSSIAYMCWIRQAPGKGLEWIGCIGSGSGNTYYANWAKGRFTISKSSSTTVTLQMTSLTAADTATYFCASDTNNGWLGQFNLWGQGTLVTVSS
VL: B6 VL with E12S, V13A, K22N, A31S, Y52S, S90G
notes: also called antibody Ab14
B9: Ab16 (antibody, human IgG1, kappa, N297A, V domains shown)
VH: B6 VH with E5V, D10G, K13Q, N32D, T58S, S62N, T79G, Q81K, L82M, N83T
VL: B6 VL with V13A, A31S, Y52S, K63S, Q70E, N97V
notes: also called antibody Ab16
B10: Ab10 (antibody, human IgG1, kappa, N297A, V domains shown)
VH: B7 VH with G50A, P54A, S56G, A57G, D58N, S62N, A73T, S76T
VL: B6 VL with D1N, V13A, A31N, A51T, Y52S, N97V, T98A
notes: also called antibody Ab10
B11: Ab7 (antibody, human IgG1, kappa, N297A)
heavy: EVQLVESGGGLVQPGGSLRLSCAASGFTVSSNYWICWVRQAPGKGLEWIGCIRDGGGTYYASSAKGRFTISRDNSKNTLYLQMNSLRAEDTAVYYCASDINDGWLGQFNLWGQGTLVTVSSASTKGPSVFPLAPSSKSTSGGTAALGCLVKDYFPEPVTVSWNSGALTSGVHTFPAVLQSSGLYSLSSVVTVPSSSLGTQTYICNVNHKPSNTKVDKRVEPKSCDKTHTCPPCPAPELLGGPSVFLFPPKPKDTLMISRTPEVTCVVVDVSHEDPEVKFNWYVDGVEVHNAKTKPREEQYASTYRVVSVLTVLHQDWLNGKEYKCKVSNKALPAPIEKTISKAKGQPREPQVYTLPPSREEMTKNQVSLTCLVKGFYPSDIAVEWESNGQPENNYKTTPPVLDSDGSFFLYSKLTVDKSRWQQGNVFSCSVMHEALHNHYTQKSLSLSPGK
light: ADIVMTQSPSSLSASVGDRVTIKCQASQSISAYLAWYQQKPGKVPKLLIYRAYTLASGVPSRFSGSGSGTDFTLTISSLQPEDVATYYCQSYYSVTTNTYGNTFGGGTKVEIKRTVAAPSVFIFPPSDEQLKSGTASVVCLLNNFYPREAKVQWKVDNALQSGNSQESVTEQDSKDSTYSLSSTLTLSKADYEKHKVYACEVTHQGLSSPVTKSFNRGEC
notes: also called antibody Ab7
B12: Ab18 (antibody, human IgG1, kappa, N297A)
heavy: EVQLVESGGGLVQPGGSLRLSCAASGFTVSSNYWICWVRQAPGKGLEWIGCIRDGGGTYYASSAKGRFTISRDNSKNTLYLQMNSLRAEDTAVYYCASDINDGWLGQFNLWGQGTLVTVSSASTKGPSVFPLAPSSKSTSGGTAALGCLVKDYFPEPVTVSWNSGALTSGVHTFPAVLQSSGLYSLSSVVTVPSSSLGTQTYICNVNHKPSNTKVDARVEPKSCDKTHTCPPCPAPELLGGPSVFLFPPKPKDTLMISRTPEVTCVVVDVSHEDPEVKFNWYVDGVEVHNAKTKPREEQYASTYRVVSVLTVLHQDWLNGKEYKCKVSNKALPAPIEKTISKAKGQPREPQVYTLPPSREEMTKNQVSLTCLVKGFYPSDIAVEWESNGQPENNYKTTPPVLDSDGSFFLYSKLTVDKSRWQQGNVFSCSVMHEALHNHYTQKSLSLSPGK
light: B11 light
notes: also called antibody Ab18
B13: Ab12 (antibody, human IgG1, kappa, N297A)
heavy: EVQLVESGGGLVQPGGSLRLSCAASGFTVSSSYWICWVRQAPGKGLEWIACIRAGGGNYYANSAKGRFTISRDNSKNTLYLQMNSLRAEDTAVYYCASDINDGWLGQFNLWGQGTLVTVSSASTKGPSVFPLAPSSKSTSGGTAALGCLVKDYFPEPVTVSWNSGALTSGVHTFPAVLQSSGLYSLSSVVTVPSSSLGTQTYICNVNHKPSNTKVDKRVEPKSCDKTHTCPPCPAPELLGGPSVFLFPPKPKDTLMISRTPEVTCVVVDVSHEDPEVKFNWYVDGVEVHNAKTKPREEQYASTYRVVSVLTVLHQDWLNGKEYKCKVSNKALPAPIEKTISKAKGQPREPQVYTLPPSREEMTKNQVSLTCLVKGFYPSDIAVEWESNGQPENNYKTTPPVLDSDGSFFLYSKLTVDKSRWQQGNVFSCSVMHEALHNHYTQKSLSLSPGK
light: B11 light with D2N, A32N, A52T, Y53S, N98V, T99A
notes: also called antibody Ab12
B14: Ab11 (antibody, human IgG1, kappa, N297A)
heavy: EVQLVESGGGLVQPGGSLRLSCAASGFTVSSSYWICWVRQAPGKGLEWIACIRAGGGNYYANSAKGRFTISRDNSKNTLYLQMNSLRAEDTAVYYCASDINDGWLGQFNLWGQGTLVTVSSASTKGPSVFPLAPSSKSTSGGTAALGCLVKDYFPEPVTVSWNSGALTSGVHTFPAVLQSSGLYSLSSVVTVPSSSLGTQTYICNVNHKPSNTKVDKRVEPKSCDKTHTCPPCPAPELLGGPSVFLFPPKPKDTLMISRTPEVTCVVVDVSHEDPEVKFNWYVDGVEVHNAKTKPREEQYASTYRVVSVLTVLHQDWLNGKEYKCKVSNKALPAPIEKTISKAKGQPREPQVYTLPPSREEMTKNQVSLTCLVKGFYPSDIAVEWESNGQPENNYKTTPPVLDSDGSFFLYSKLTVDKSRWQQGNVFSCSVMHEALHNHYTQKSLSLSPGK
light: B11 light with D2N, K23T, A32N, A52T, Y53S, N98V, T99A
notes: also called antibody Ab11
B15: Ab15 (antibody, human IgG1, kappa, N297A, V domains shown)
VH: QEQLEESGGDLVKPEGSLTLTCTASGFSFSSSYWICWVRQAPGKGLEWIACIDAGNSGSTYYASWAKGRFTISKASSTTVTLQMTSLTAADTATYFCASDLNDGWLGQFNLWGPGTLVTVSS
VL: NIVMTQTPSPVSGAVGGTVTIKCQASQSISDYLAWYQQKPGQPPKLLIYRASTLASGVPSRFRGSGSGTEYTLTITDLECADAATYYCQSYYSVTTNTYGNTFGGGTEVVVKR
notes: also called antibody Ab15
B16: Ab13 (antibody, human IgG1, kappa, N297A, V domains shown)
VH: QSVEESGGRLVTPGTPLTLTCTVSGIDLSTYGVGWVRQAPGKGLEYIGIISSSGSTYYASWAKGRFTISKTSSTTVDLKMTSLTTEDTATYFCARDWSSTTGYYGYFNMWGPGTLVTVSS
VL: AFELTQTPSPVSAAVGGTVTIKCQASQSISTALAWYQQKPGQPPKLLIYGASNLESGVPSRFSGSGSGTQFTLTISDLECADAAIYYCQSSYGSSTLAFGGGTEVVVKR
notes: also called antibody Ab13
B17: Ab9 (antibody, human IgG1, kappa, N297A, V domains shown)
VH: QSVEESGGRLVTPGTPLTLTCTVSGIDLSSYAMGWVRQAPGKGLEYIGIIVSYGPTYYASWAKGRFTISKTSTTVDLKITSPTAEDTATYFCARDLDANSSGYYGCFNIWGQGTLVTVSS
VL: AVVLTQTPASVSAAVGGTVTIKCQASQSISTALAWYQQKPGQPPKLLIYAASPLASGVSSRFKSSGSGTEFTLTISDLECADAATYYCQSYYGSSNIAFGGGTELEILR
notes: also called antibody Ab9
B18: Ab2 (antibody, human IgG1, kappa, N297A, V domains shown)
VH: QSVEESGGRLVTPGTPLTLTCTVSGFSLSSYAMSWVRQAPGKGLEWIGIIDAIDNTYYASWAKGRFTISKTSTTVDLKMTSLTTGDTATYFCARASILGYSIATGFNIWGPGTLVTVSS
VL: AYDMTQTPASVEVAVGGTVTIKCQASQSISSHLAWYQQKSGQPPKLLIYRASTLESGVSSRFKGSGSGTEFTLTISDLECADAATYYCQQGYGVSDVDNGFGGGTEVVVKR
notes: also called antibody Ab2
B19: Ab19 (antibody, human IgG1, kappa, N297A, V domains shown)
VH: EVQLVESGGGLVQPGGSLRLSCAASGIDLSSYAMGWVRQAPGKGLEYIGIIVSYGPTYYASWAKGRFTISRDNSKNTVYLQMNSLRAEDTATYFCARDLDAQSSGYYGAFNIWGQGTLVTVSS
VL: DIQMTQSPSTLSASVGDRVTITCQASQSISTALAWYQQKPGKAPKLLIYAASPLASGVPSRFSGSGSGTEFTLTISSLQPDDFATYYCQSYYGSSNIAFGGGTKVEIKR
notes: also called antibody Ab19
B20: Ab20 (antibody, human IgG1, kappa, N297A, V domains shown)
VH: B19 VH with N76S
VL: B19 VL
notes: also called antibody Ab20

Substitutions are numbered along the chain they refer to.

For 20 molecules, Kd, koff and kon results are on record in patent publication US20130302399A1 (ALDERBIO, published 2013).

For orientation: Kd means the equilibrium constant for the complex coming apart. High values mean weaker binding, low ones tighter binding. Usually koff stands for the first-order rate constant of dissociation. One may read the kon as the rate constant with which the complex forms.

The target in this assay is T1, human Proprotein Convertase Subtilisin-like/Kexin type 9 (human, UniProt Q8NBP7 31-692, limits assumed).
T1 construct: Biotinylated in the ELISAs; unlabelled analyte in BLI and SPR; also called human PCSK9; PCSK9
T1 sequence (Q8NBP7 31-692 limits assumed): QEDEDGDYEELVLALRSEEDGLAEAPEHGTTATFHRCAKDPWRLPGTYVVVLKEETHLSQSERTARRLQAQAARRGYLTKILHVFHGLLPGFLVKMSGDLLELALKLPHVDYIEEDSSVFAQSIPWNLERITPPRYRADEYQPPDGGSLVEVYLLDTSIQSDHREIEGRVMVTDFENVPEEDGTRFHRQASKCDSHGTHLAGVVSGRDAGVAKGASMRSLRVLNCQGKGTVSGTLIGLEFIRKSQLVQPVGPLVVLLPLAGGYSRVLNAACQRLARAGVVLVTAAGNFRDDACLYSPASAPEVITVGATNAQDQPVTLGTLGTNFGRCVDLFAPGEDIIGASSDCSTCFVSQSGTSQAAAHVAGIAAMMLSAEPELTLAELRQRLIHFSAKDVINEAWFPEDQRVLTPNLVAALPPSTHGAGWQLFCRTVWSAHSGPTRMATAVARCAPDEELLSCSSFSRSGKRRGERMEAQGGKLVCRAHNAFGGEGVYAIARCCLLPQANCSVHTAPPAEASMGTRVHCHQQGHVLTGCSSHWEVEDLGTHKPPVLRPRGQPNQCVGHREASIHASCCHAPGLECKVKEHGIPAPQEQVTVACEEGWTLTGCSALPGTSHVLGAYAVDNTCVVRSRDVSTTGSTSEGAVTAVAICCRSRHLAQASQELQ
As to the kind of experiment: BLI (Octet QK), biotinylated antibody on streptavidin sensors, human PCSK9 in solution, 1:1 fit. The method, then: Binding affinities of monoclonal antibodies for PCSK9 were estimated using Bio-Layer Interferometry (BLI) on the Octet QK (ForteBio). Biotinylated antibody was immobilized at different densities to the surface of Streptavidin (SA) Biosensors. A dilution series of human PCSK9 prepared in 1× Kinetics Buffer (NaCl 0.0138 M; KCl 0.00027 M; 0.1 mg/mL BSA, 0.002% Tween and 0.005% Sodium Azide; pH 7.4, at 25° C.) purchased from the manufacturer (ForteBio) was used to query the antibodies. At our chosen concentrations of antigen (˜0.25 μg/mL-2 μg/mL) association times of 15 minutes and dissociation times of 25 minutes were used with the Octet Analysis Software (v6.4, ForteBio), to globally fit data using a 1:1 Langmuir binding model.
In general terms: BLI is a label-free optical method that tracks binding on a fibre tip over time.
B1 returned a dissociation constant Kd of 6000 pM, a koff of 0.000422 s⁻¹ and an on-rate constant (kon) of 70300 M⁻¹ s⁻¹.

Turning to B2, binding was put at a Kd of 5870 pM, the dissociation rate constant (koff) turned out to be 0.000554 s⁻¹ and the kon is 94400 M⁻¹ s⁻¹.

The molecule B3 displayed a Kd of 3160 pM, an off-rate constant (koff) of 0.000278 s⁻¹ and a kon of 88100 M⁻¹ s⁻¹.

Molecule B4 returned a Kd of 7990 pM, a koff of 0.0013 s⁻¹ and a kon of 162000 M⁻¹ s⁻¹.

In turn, B5 returned a dissociation constant (Kd) of 637 pM, a koff of 4.91e-05 s⁻¹ and a kon of 77000 M⁻¹ s⁻¹.

With B6, the Kd worked out at 531 pM, the koff stood at 4e-05 s⁻¹ and the kon was determined as 75300 M⁻¹ s⁻¹.

The molecule B7 displayed a dissociation constant Kd of 609 pM, a koff of 6.27e-05 s⁻¹ and a kon of 103000 M⁻¹ s⁻¹.

As for B8, the Kd stood at 3700 pM, the koff amounted to 0.000362 s⁻¹ and the kon worked out at 97900 M⁻¹ s⁻¹.

B9 gave a dissociation constant (Kd) of 1280 pM, an off-rate constant (koff) of 9.92e-05 s⁻¹ and a kon of 77500 M⁻¹ s⁻¹.

B10 displayed a Kd of 676 pM, a koff of 5.09e-05 s⁻¹ and an association rate constant (kon) of 75300 M⁻¹ s⁻¹.

In the case of B11, binding was characterised by a dissociation constant (Kd) of 379 pM, the koff was determined as 2.68e-05 s⁻¹ and the kon was 70700 M⁻¹ s⁻¹.

In turn, B12 returned a Kd of 215 pM, a koff of 2.09e-05 s⁻¹ and a kon of 97000 M⁻¹ s⁻¹.

For the molecule B13, the Kd stood at 120 pM, the off-rate (koff) turned out to be 1.21e-05 s⁻¹ and the on-rate (kon) worked out at 100000 M⁻¹ s⁻¹.

The molecule B14 gave a dissociation constant Kd of 332 pM, a koff of 2.22e-05 s⁻¹ and a kon of 66800 M⁻¹ s⁻¹.

Molecule B15 returned a dissociation constant Kd of 839 pM, a dissociation rate constant (koff) of 5.8e-05 s⁻¹ and an association rate constant (kon) of 69200 M⁻¹ s⁻¹.

B16 registered a Kd of 2230 pM, a koff of 0.000353 s⁻¹ and an association rate constant (kon) of 159000 M⁻¹ s⁻¹.

Take B17: binding was characterised by a dissociation constant (Kd) of 637 pM, the koff is 4.91e-05 s⁻¹ and the on-rate constant (kon) was 77000 M⁻¹ s⁻¹.

Molecule B18 returned a Kd of 4250 pM, a koff of 0.000453 s⁻¹ and a kon of 107000 M⁻¹ s⁻¹.

Molecule B19 yielded a Kd of 1300 pM, a koff of 0.000116 s⁻¹ and a kon of 88000 M⁻¹ s⁻¹.

B20 showed an equilibrium dissociation constant (Kd) of 600 pM, a koff of 6.63e-05 s⁻¹ and a kon of 108000 M⁻¹ s⁻¹.
